Measured values as given in PMC11176301 (2024).

How the values were obtained:
[1] = target: T1, GAD65 peptide on HLA-DRA*01:01 / HLA-DRB1*04:01 (human); assay: proliferation
T1 peptide: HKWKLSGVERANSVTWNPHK

[2] = target: T2, Influenza A MP54 (influenza M protein) peptide on HLA-DRA*01:01 / HLA-DRB1*04:01 (human); assay: proliferation
T2 peptide: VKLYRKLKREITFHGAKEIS

[3] = target: T2, Influenza A MP54 (influenza M protein) …; assay: activation reporter or marker

Binder	binding result [1]	binding result [2]	binding result [3]
Clone 566 (TCR) alpha TRAV29DV5 TRAJ45 CDR3: CAASRYSGGGADGLTF beta TRBV12-4 TRBJ1-1 CDR3: CASSVQGGNTEAFF	recognises	recognises	
P196-1 (TCR) alpha TRAV29DV5 TRAJ45 CDR3: CAASRYSGGGADGLTF beta TRBV12-4 TRBJ1-1 CDR3: CASSLQGGNTEAFF	recognises		recognises
Clone 81 (TCR) alpha TRAV29DV5 TRAJ45 CDR3: CAASRYSGGGADGLTF beta TRBV12-4 TRBJ1-1 CDR3: CASSPQGGNTEAFF	recognises	recognises	
